For this assay, the target named is ZEBOV-VP40蛋白C端的特异的抗原肽13肽 […] (扎伊尔型埃博拉病毒 (Zaire ebolavirus)). Put plainly: indirect ELISA on coated VP40 peptide (hybridoma screening, P/N≥2.1 positive).

Here are results for one molecule from patent CN108424448A (UNIV ZHEJIANG, dated 2018).

B1: 抗埃博拉病毒VP40蛋白单克隆抗体F1B4 (antibody, V domains shown)
VH: EVRLQQSGPELGKPGASVKISCKTSGYVFTEYTIHWMKQSHGKSLEWIGNIYPKNGGTAYSQKFKGRATLSADKSSRTAYIELRSLTSEDSAVYYCARDNYGFDCWGQGTTLTVSS
VL: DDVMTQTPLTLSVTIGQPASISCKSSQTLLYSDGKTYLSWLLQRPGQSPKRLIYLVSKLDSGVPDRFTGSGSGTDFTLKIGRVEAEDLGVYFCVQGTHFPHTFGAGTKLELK
Consider B1, for which the binding result was “binds”.
